# Assay results: paper PMC4027202
# T1: Toscana virus nucleoprotein N (Toscana virus, UniProt P21701 1-253)
# T1 sequence: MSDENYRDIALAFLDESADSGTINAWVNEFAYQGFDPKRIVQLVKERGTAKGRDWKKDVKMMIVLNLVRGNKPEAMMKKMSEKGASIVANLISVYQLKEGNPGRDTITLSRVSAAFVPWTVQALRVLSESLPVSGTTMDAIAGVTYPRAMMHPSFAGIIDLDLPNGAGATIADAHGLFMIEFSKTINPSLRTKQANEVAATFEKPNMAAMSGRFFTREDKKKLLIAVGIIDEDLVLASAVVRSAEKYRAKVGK
# T2: RVFV nucleoprotein N (Rift Valley fever virus, UniProt D3K5I7 1-245)
# T2 sequence: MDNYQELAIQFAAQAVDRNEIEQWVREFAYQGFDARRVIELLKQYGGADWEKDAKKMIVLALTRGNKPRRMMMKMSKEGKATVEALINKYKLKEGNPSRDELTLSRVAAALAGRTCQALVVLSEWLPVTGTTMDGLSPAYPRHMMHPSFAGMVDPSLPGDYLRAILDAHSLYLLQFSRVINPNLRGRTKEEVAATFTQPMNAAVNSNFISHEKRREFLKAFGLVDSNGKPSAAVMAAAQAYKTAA
# B1: oligo5 (polyU 9-mer) (ssRNA)
# RNA: UUUUUUUUU
# B2: oligo7 (7-mer from oligo1) (ssRNA)
# RNA: UGUGUUU
# B3: oligo1 (reverted 3' consensus 9-mer) (ssRNA)
# RNA: UGUGUUUCU
# B4: oligo2 (3' genomic consensus) (ssRNA)
# RNA: UCUUUGUGU
# B5: oligo8 (6-mer from oligo1) (ssRNA)
# RNA: UGUGUU
# B6: oligo6 (8-mer from oligo1) (ssRNA)
# RNA: UGUGUUUC
# B7: Toscana virus nucleoprotein N (natural protein)
# chain: T1 sequence
# notes: Hexameric ring in both crystal forms
# B8: oligo4 (G2A mutant of oligo1) (ssRNA)
# RNA: UAUGUUUCU
# Columns and labels:
# [1] = target: T1, Toscana virus nucleoprotein N; test: ITC; n=0.40; ITC: 20 mM Tris pH 7.5, 150 mM NaCl, 8 C; 400 uM RNA titrated into 30 uM apo N; details: protein: recombinant; tags: N-terminal His6; chain copies: 6; single strand
# [2] = target: T1, Toscana virus nucleoprotein N; test: ITC; n=0.52; ITC: 20 mM Tris pH 7.5, 150 mM NaCl, 8 C; 400 uM RNA titrated into 30 uM apo N; details: protein: recombinant; tags: N-terminal His6; chain copies: 6; single strand
# RVFV nucleoprotein N = target: T2, RVFV nucleoprotein N; test: ITC; n=0.70; main text gives 420 nM; ITC: 20 mM Tris pH 7.5, 150 mM NaCl, 8 C; […]; details: protein: recombinant; single strand
# [3] = target: T1, Toscana virus nucleoprotein N; test: ITC; n=0.49; ITC: 20 mM Tris pH 7.5, 150 mM NaCl, 8 C; 400 uM RNA titrated into 30 uM apo N; details: protein: recombinant; tags: N-terminal His6; chain copies: 6; single strand
# [4] = target: T1, Toscana virus nucleoprotein N; test: ITC; n=0.43; ITC: 20 mM Tris pH 7.5, 150 mM NaCl, 8 C; 400 uM RNA titrated into 30 uM apo N; details: protein: recombinant; tags: N-terminal His6; chain copies: 6; single strand
# [5] = target: T1, Toscana virus nucleoprotein N; test: ITC; n=0.50; ITC: 20 mM Tris pH 7.5, 150 mM NaCl, 8 C; 400 uM RNA titrated into 30 uM apo N; details: protein: recombinant; tags: N-terminal His6; chain copies: 6; single strand
# [6] = target: T1, Toscana virus nucleoprotein N; test: ITC; n=0.51; ITC: 20 mM Tris pH 7.5, 150 mM NaCl, 8 C; 400 uM RNA titrated into 30 uM apo N; details: protein: recombinant; tags: N-terminal His6; chain copies: 6; single strand
# [7] = target: the molecule itself; test: crystal structure; apo (RNA-free) N; 6.5% PEG 3350, 0.1-M sodium malonate, pH 4.5-5.2; space group P6, 12 molecules in the asymmetric unit, 3.3 Å
# [8] = target: the molecule itself; test: crystal structure; N reconstituted with 9-mer RNA oligo1 (UGUGUUUCU); 11% PEG 3350, 0.1-M sodium malonate, pH 4.5-5.2; space group P1, 24 N and 12 RNA in the asymmetric unit, 2.6 Å
binder,measurement,setting,value
B1,Kd,[1],360 ± 40 nM
B2,Kd,[2],2700 ± 200 nM
B3,Kd,RVFV nucleoprotein N,400 ± 100 nM
same,Kd,[3],260 ± 20 nM
B4,Kd,[4],560 ± 70 nM
B5,Kd,[5],8 ± 0.9 µM
B6,Kd,[6],710 ± 30 nM
B7,stoichiometry N,[7],6
same,stoichiometry N,[8],6
B8,Kd,[3],290 ± 40 nM
